Earlier results in publication PMC3433420.
Where two headings read alike, the source gives them in different places.

Legend:
Conditions in all cases: cited from earlier work
[1] = biological target: SHC1-PTB (Homo sapiens) (UniProt P29353)
[2] = biological target: SHC1-PTB (Homo sapiens) (UniProt P29353); remark: listed apart in the source
[3] = biological target: ABL2 (Homo sapiens) (UniProt P42684)
[4] = biological target: ABL2 (Homo sapiens) (UniProt P42684); remark: listed apart in the source
[5] = biological target: ABL1 (Homo sapiens) (UniProt P00519)
[6] = biological target: NCK2 (Homo sapiens) (UniProt O43639)
[7] = biological target: PIK3R3-NC (Homo sapiens) (UniProt Q92569)
[8] = biological target: PIK3R1-N (Homo sapiens) (UniProt P27986)
[9] = biological target: ABL1 (Homo sapiens) (UniProt P00519); remark: listed apart in the source
[10] = biological target: PIK3R3-N (Homo sapiens) (UniProt Q92569)
[11] = biological target: PIK3R2-N (Homo sapiens) (UniProt O00459)
[12] = biological target: PLCG2-NC (Homo sapiens) (UniProt P16885)
[13] = biological target: PIK3R3-NC (Homo sapiens) (UniProt Q92569); remark: listed apart in the source
[14] = biological target: ITK (Homo sapiens) (UniProt Q08881)
[15] = biological target: GRB7 (Homo sapiens) (UniProt Q14451)
[16] = biological target: YES1 (Homo sapiens) (UniProt P07947)
[17] = biological target: VAV2 (Homo sapiens) (UniProt P52735)
[18] = biological target: RASA1-N (Homo sapiens) (UniProt P20936)
[19] = biological target: ABL2 (Homo sapiens) (UniProt P42684); remark: listed apart in the source
[20] = biological target: GRB10 (Homo sapiens) (UniProt Q13322)
[21] = biological target: SYK-NC (Homo sapiens) (UniProt P43405)
[22] = biological target: NCK2 (Homo sapiens) (UniProt O43639); remark: listed apart in the source
[23] = biological target: PIK3R1-NC (Homo sapiens) (UniProt P27986)
[24] = biological target: PIK3R2-NC (Homo sapiens) (UniProt O00459)
[25] = biological target: BLK (Homo sapiens) (UniProt P51451)
[26] = biological target: GRB2 (Homo sapiens) (UniProt P62993)
[27] = biological target: SYK-C (Homo sapiens) (UniProt P43405)
[28] = biological target: SRC (Homo sapiens) (UniProt P12931)
[29] = biological target: ABL2 (Homo sapiens) (UniProt P42684); remark: listed apart in the source
[30] = biological target: BLK (Homo sapiens) (UniProt P51451); remark: listed apart in the source
[31] = biological target: ABL2 (Homo sapiens) (UniProt P42684); remark: listed apart in the source
[32] = biological target: ZAP70-NC (Homo sapiens) (UniProt P43403)
[33] = biological target: RASA1-N (Homo sapiens) (UniProt P20936); remark: listed apart in the source
[34] = biological target: NCK2 (Homo sapiens) (UniProt O43639); remark: listed apart in the source
[35] = biological target: GRB2 (Homo sapiens) (UniProt P62993); remark: listed apart in the source
[36] = biological target: ITK (Homo sapiens) (UniProt Q08881); remark: listed apart in the source
[37] = biological target: PIK3R2-N (Homo sapiens) (UniProt O00459); remark: listed apart in the source
[38] = biological target: PIK3R2-NC (Homo sapiens) (UniProt O00459); remark: listed apart in the source
[39] = biological target: GRB2 (Homo sapiens) (UniProt P62993); remark: listed apart in the source
[40] = biological target: PIK3R1-NC (Homo sapiens) (UniProt P27986); remark: listed apart in the source
[41] = biological target: ABL2 (Homo sapiens) (UniProt P42684); remark: listed apart in the source
[42] = biological target: PIK3R3-NC (Homo sapiens) (UniProt Q92569); remark: listed apart in the source
[43] = biological target: SHC1-PTB (Homo sapiens) (UniProt P29353); remark: listed apart in the source
[44] = biological target: PIK3R3-N (Homo sapiens) (UniProt Q92569); remark: listed apart in the source
[45] = biological target: SHC1-PTB (Homo sapiens) (UniProt P29353); remark: listed apart in the source
[46] = biological target: ABL2 (Homo sapiens) (UniProt P42684); remark: listed apart in the source
[47] = biological target: VAV2 (Homo sapiens) (UniProt P52735); remark: listed apart in the source

ABL2 (Homo sapiens), sequence (P42684 168-268): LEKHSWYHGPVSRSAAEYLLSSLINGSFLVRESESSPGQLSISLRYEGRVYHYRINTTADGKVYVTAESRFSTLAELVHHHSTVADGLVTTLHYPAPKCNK
GRB2 (Homo sapiens), sequence (P62993 55-157): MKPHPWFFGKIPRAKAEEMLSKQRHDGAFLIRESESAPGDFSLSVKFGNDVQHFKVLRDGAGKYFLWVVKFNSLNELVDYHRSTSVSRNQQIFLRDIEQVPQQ
NCK2 (Homo sapiens), sequence (O43639 280-380): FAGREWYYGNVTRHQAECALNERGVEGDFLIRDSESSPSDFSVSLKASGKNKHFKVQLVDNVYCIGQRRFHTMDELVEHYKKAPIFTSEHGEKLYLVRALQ
SHC1-PTB (Homo sapiens), sequence (P29353 483-583): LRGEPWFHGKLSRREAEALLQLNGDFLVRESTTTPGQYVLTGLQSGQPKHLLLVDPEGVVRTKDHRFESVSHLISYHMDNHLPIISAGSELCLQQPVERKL
BLK (Homo sapiens), sequence (P51451 119-225): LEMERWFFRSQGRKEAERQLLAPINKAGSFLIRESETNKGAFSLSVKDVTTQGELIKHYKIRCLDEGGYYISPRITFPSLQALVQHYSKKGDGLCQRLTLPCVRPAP
ITK (Homo sapiens), sequence (Q08881 234-343): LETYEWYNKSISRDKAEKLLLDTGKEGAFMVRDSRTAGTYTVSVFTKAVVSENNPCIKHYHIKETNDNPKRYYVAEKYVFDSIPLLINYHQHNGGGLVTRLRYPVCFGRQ
RASA1-N (Homo sapiens), sequence (P20936 176-446): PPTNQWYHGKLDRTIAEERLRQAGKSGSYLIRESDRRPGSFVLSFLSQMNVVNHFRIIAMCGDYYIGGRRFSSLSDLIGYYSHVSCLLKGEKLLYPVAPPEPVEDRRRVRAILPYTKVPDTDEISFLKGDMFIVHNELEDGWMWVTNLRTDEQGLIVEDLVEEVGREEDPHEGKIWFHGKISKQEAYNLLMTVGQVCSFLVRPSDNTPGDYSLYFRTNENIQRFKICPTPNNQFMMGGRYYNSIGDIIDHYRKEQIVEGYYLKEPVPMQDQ
PIK3R1-NC (Homo sapiens), sequence (P27986 328-723): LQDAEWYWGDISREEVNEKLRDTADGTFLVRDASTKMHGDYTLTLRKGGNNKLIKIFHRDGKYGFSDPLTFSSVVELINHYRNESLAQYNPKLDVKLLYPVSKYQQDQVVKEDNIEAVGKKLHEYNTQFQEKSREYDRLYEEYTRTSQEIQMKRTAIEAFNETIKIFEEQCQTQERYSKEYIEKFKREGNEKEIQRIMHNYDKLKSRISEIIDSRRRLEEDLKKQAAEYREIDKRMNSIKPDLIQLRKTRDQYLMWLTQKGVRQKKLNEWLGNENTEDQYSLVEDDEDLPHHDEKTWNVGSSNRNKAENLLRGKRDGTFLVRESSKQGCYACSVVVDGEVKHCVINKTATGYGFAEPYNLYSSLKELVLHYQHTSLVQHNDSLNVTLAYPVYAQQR
ABL1 (Homo sapiens), sequence (P00519 122-222): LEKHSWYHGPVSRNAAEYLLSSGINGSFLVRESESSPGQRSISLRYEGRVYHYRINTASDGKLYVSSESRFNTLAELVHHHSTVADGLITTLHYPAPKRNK
VAV2 (Homo sapiens), sequence (P52735 668-772): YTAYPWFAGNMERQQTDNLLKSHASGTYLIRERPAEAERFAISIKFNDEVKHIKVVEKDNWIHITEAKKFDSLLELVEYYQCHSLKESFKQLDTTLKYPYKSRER
PIK3R2-N (Homo sapiens), sequence (O00459 325-721): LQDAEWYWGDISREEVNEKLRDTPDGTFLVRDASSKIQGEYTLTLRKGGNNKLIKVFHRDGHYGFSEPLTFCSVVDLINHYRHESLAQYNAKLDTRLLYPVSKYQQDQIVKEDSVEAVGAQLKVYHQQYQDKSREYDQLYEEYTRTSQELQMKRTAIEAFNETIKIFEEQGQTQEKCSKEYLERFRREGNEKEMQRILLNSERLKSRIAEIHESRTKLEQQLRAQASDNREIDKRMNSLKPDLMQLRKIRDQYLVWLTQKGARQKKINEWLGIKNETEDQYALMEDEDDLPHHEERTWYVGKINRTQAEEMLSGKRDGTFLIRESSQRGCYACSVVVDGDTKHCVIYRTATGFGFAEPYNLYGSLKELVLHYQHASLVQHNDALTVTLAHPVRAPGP
PIK3R2-NC (Homo sapiens), sequence (O00459 325-721): as above
ZAP70-NC (Homo sapiens), sequence (P43403 5-259): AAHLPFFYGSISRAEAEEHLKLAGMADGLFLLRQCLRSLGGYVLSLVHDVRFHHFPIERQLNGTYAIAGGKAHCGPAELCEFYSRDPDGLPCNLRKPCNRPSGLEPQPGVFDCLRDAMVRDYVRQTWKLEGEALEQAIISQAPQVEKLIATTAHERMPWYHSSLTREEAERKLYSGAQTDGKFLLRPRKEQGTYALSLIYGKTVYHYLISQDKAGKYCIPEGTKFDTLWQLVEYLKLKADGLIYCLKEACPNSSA
PLCG2-NC (Homo sapiens), sequence (P16885 527-740): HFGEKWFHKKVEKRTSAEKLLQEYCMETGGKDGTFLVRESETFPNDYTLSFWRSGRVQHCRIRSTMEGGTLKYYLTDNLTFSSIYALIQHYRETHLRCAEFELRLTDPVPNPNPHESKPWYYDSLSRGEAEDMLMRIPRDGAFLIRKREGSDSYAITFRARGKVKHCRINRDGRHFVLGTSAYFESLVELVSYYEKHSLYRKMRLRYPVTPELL
YES1 (Homo sapiens), sequence (P07947 153-260): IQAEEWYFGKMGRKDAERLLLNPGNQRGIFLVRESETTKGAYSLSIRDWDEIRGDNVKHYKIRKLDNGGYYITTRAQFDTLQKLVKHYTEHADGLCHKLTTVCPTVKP
PIK3R1-N (Homo sapiens), sequence (P27986 328-723): as the sequence (P27986 328-723) above
GRB10 (Homo sapiens), sequence (Q13322 488-579): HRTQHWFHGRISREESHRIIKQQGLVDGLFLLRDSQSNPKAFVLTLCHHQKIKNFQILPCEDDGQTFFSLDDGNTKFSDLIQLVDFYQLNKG
GRB7 (Homo sapiens), sequence (Q14451 426-532): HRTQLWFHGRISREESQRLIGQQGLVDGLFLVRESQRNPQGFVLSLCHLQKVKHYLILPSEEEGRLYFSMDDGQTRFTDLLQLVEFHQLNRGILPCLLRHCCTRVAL

Substance: …pYHNASNGPd
- apparent Kd (screen) [1]: 717 nM
- apparent Kd (screen) [2]: 277 nM
- apparent Kd (screen) [3]: 35 nM
- apparent Kd (screen) [4]: 755 nM
- apparent Kd (screen) [5]: 1820 nM
- apparent Kd (screen) [6]: 2000 nM
- apparent Kd (screen) [7]: 2000 nM

Substance: …pYINQSVPKd
- apparent Kd (screen) [8]: 1080 nM
- apparent Kd (screen) [9]: 916 nM
- apparent Kd (screen) [10]: 507 nM
- apparent Kd (screen) [11]: 453 nM
- apparent Kd (screen) [12]: 1630 nM
- apparent Kd (screen) [13]: 1020 nM
- apparent Kd (screen) [14]: 219 nM
- apparent Kd (screen) [15]: 1980 nM
- apparent Kd (screen) [16]: 337 nM
- apparent Kd (screen) [17]: 542 nM
- apparent Kd (screen) [18]: 180 nM
- apparent Kd (screen) [19]: 152 nM
- apparent Kd (screen) [20]: 1300 nM
- apparent Kd (screen) [21]: 908 nM
- apparent Kd (screen) [22]: 1100 nM
- apparent Kd (screen) [23]: 670 nM
- apparent Kd (screen) [24]: 1410 nM
- apparent Kd (screen) [25]: 300 nM
- apparent Kd (screen) [26]: 198 nM
- apparent Kd (screen) [27]: 1920 nM
- apparent Kd (screen) [28]: 1790 nM

Substance: …pYHAEGGKVd
- apparent Kd (screen) [29]: 1080 nM
- apparent Kd (screen) [30]: 1710 nM
- apparent Kd (screen) [31]: 2000 nM

Substance: …pYLNTVQPTd
- apparent Kd (screen) [32]: 1140 nM
- apparent Kd (screen) [33]: 388 nM
- apparent Kd (screen) [34]: 326 nM
- apparent Kd (screen) [35]: 724 nM
- apparent Kd (screen) [36]: 1760 nM
- apparent Kd (screen) [37]: 763 nM
- apparent Kd (screen) [38]: 857 nM
- apparent Kd (screen) [39]: 422 nM
- apparent Kd (screen) [40]: 1570 nM
- apparent Kd (screen) [41]: 120 nM
- apparent Kd (screen) [42]: 1690 nM
- apparent Kd (screen) [43]: 133 nM
- apparent Kd (screen) [44]: 838 nM
- apparent Kd (screen) [45]: 173 nM
- apparent Kd (screen) [46]: 85 nM
- apparent Kd (screen) [47]: 373 nM
